Reference: patent publication US8673850B2, “PCSK9 inhibitors and methods of use thereof” (Institut de Recherches Cliniques de Montreal, priority 2008, dated 2014)

Biological target: PCSK9-V5 (Homo sapiens, UniProt Q8NBP7)
Test: Far Western blot with PCSK9-V5 conditioned media
Assay type: binding
Design: made in house; host or cells: CHO-K1 cells (conditioned medium, not purified)
Details: lysates of cells overexpressing the construct
Method: Lysates (20 to 30 μg protein), media or purified AnxA2-(His)6 were heated in reducing or non-reducing Laemmli sample buffer, resolved by SDS-PAGE on 8% glycine gels and electro-transferred onto nitrocellulose membranes (GE Healthcare). Following 1 h incubation in 5% skim milk in Tris-Buffered Saline-0.1% Tween (TBST), membranes where incubated with conditioned media of CHO-K1 cells overexpressing either an empty vector (pIRES-V5), PC5A-V5, CHRD-V5, pIRES-D374Y, PCSK9-V5 or its V5-tagged mutants, or incubated with purified AnxA2-(His)6 for 3 h at room temperature. […] For competition experiments, 10 μg of His-tagged PCSK9 or CHRD were added to the PCSK9-V5 media before Far Western blotting. For PCSK9 binding requirements with the ˜33 kDa protein, 1M NaCl, 10 mg/ml heparin, 1M NaCl+10 mg/ml heparin, or 100 mM EDTA were added to the PCSK9-V5 conditioned media used for Far Western blotting.
Wild type human Annexin A2 (AnxA2) (ATCC #MGC-2257) and Annexin A1 (AnxA1) (ATCC #MGC-5095) were purchased from ATCC and subcloned into NheI/SacI digested pIRES2-EGFP vector. An HA epitope ([…]) was fused by PCR mutagenesis at the C-terminus of both AnxA1 and AnxA2. Two-steps PCRs were performed on AnxA2 cDNA to introduce point mutations (N62Q; S64A; K28S+D34N+E36S; R37S+E43H+K47M; 77RRTKK (SEQ ID NO: 26)>AATAK (SEQ ID NO: 27); ^77RRTKK (SEQ ID NO: 26)>AATAA (SEQ ID NO: 28); ^77RRTKKELASALK (SEQ ID NO: 29)>^77AATAAELASALA (SEQ ID NO: 30); 80KKELA (SEQ ID NO: 31)>GKPLD (SEQ ID NO: 32)), or amino acid (aa) deletions (Δ2-24, aa 2-24; ΔR1, aa 37-108; ΔR2, aa 109-192; ΔR3, aa 193-268; ΔR4, aa 269-339; Δ25-36, aa 25-36; Δ37-48, aa 37-48; Δ49-61, aa 49-61; Δ62-75, aa 62-75; Δ37-66, aa 37-66; Δ74-88, aa 74-88; Δ82-88, aa 82-88; Δ89-101, aa 89-101; Δ102-108, aa 102-108) into pIRES2-AnxA2-EGFP vector (see Table 3 above). In addition, using PCR, the AnxA2 segment aa 49-75 was swapped with the corresponding AnxA1 segment aa 58-84 [AnxA1 (aa 58-84)>AnxA2 (aa 49-75)]. Similar swaps were performed for the corresponding AnxA2 sequence with AnxA1 (AnxA1>AnxA2: aa 25-27; aa 28-30; aa 31-33; aa 34-36; aa 37-39; aa 40-42; aa 43-45; aa 46-48; aa 49-75; aa 49-61; aa 62-75). All final cDNA constructs were verified by DNA sequencing.

Chain of PCSK9-V5 (Q8NBP7 153-692): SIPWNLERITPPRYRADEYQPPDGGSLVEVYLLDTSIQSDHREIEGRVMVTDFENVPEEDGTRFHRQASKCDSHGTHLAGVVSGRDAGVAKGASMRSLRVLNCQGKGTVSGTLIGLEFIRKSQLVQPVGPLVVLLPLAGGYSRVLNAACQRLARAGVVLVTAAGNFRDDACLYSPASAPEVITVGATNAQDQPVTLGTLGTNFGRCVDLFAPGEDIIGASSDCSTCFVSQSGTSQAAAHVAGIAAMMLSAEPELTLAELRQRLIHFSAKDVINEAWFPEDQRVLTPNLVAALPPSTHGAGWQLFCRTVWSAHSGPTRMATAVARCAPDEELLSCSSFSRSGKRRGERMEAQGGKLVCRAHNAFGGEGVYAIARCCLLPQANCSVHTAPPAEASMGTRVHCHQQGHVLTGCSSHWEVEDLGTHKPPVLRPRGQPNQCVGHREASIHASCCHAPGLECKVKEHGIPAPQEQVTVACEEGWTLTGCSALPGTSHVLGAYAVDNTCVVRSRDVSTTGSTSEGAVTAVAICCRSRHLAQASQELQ
Chain of PCSK9-V5 (Q8NBP7 31-152 partner limits assumed): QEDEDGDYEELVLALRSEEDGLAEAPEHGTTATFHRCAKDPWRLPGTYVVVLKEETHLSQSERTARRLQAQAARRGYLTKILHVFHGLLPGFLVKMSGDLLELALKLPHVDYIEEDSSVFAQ

PCSK9-V5 binding by Far Western blot | Molecule
abolished | SW49-75: AnxA2 segment aa 49-75 swapped with AnxA1 aa 58-84 (protein) MSTVHEILCKLSLEGDHSTPPSAYGSVKAYTNFDAERDALNIETAIKTKGVDEATIIDILTKRNNAQRQQIKAAYQRRTKKELASALKSALSGHLETVILGLLKTPAQYDASELKASMKGLGTDEDSLIEIICSRTNQELQEINRVYKEMYKTDLEKDIISDTSGDFRKLMVALAKGRRAEDGSVIDYELIDQDARDLYDAGVKRKGTDVPKWISIMTERSVPHLQKVFDRYKSYSPYDMLESIRKEVKGDLENAFLNLVQCIQNKPLYFADRLYDSMKGKGTRDKVLIRIMVSRSEVDMLKIRSEFKRKYGKSLYYYIQQDTKGDYQKALLYLCGGDDYPYDVPDYA
abolished PCSK9 binding | Δ102-108: AnxA2 deletion of aa 102-108 (protein) MSTVHEILCKLSLEGDHSTPPSAYGSVKAYTNFDAERDALNIETAIKTKGVDEVTIVNILTNRSNAQRQDIAFAYQRRTKKELASALKSALSGHLETVILGYDASELKASMKGLGTDEDSLIEIICSRTNQELQEINRVYKEMYKTDLEKDIISDTSGDFRKLMVALAKGRRAEDGSVIDYELIDQDARDLYDAGVKRKGTDVPKWISIMTERSVPHLQKVFDRYKSYSPYDMLESIRKEVKGDLENAFLNLVQCIQNKPLYFADRLYDSMKGKGTRDKVLIRIMVSRSEVDMLKIRSEFKRKYGKSLYYYIQQDTKGDYQKALLYLCGGDDYPYDVPDYA
abolished PCSK9 binding | Δ25-36: AnxA2 deletion of aa 25-36 (protein) MSTVHEILCKLSLEGDHSTPPSAYRDALNIETAIKTKGVDEVTIVNILTNRSNAQRQDIAFAYQRRTKKELASALKSALSGHLETVILGLLKTPAQYDASELKASMKGLGTDEDSLIEIICSRTNQELQEINRVYKEMYKTDLEKDIISDTSGDFRKLMVALAKGRRAEDGSVIDYELIDQDARDLYDAGVKRKGTDVPKWISIMTERSVPHLQKVFDRYKSYSPYDMLESIRKEVKGDLENAFLNLVQCIQNKPLYFADRLYDSMKGKGTRDKVLIRIMVSRSEVDMLKIRSEFKRKYGKSLYYYIQQDTKGDYQKALLYLCGGDDYPYDVPDYA
is critical for the AnxA2-PCSK9 binding | ^77AATAK^81: AnxA2 point mutant 77RRTKK81 to AATAK (protein) MSTVHEILCKLSLEGDHSTPPSAYGSVKAYTNFDAERDALNIETAIKTKGVDEVTIVNILTNRSNAQRQDIAFAYQAATAKELASALKSALSGHLETVILGLLKTPAQYDASELKASMKGLGTDEDSLIEIICSRTNQELQEINRVYKEMYKTDLEKDIISDTSGDFRKLMVALAKGRRAEDGSVIDYELIDQDARDLYDAGVKRKGTDVPKWISIMTERSVPHLQKVFDRYKSYSPYDMLESIRKEVKGDLENAFLNLVQCIQNKPLYFADRLYDSMKGKGTRDKVLIRIMVSRSEVDMLKIRSEFKRKYGKSLYYYIQQDTKGDYQKALLYLCGGDDYPYDVPDYA
abolished binding of AnxA2 to PCSK9 | 77AATAAELASALA88: AnxA2 point mutant 77…88 to AATAAELASALA (protein, AnxA2 point mutant 77…88 to …) MSTVHEILCKLSLEGDHSTPPSAYGSVKAYTNFDAERDALNIETAIKTKGVDEVTIVNILTNRSNAQRQDIAFAYQAATAAELASALASALSGHLETVILGLLKTPAQYDASELKASMKGLGTDEDSLIEIICSRTNQELQEINRVYKEMYKTDLEKDIISDTSGDFRKLMVALAKGRRAEDGSVIDYELIDQDARDLYDAGVKRKGTDVPKWISIMTERSVPHLQKVFDRYKSYSPYDMLESIRKEVKGDLENAFLNLVQCIQNKPLYFADRLYDSMKGKGTRDKVLIRIMVSRSEVDMLKIRSEFKRKYGKSLYYYIQQDTKGDYQKALLYLCGGDDYPYDVPDYA

Further lines, the molecule ahead of its results:

Molecule | PCSK9-V5 binding by Far Western blot
77AATAA81: AnxA2 point mutant 77RRTKK81 to AATAA (protein) MSTVHEILCKLSLEGDHSTPPSAYGSVKAYTNFDAERDALNIETAIKTKGVDEVTIVNILTNRSNAQRQDIAFAYQAATAAELASALKSALSGHLETVILGLLKTPAQYDASELKASMKGLGTDEDSLIEIICSRTNQELQEINRVYKEMYKTDLEKDIISDTSGDFRKLMVALAKGRRAEDGSVIDYELIDQDARDLYDAGVKRKGTDVPKWISIMTERSVPHLQKVFDRYKSYSPYDMLESIRKEVKGDLENAFLNLVQCIQNKPLYFADRLYDSMKGKGTRDKVLIRIMVSRSEVDMLKIRSEFKRKYGKSLYYYIQQDTKGDYQKALLYLCGGDDYPYDVPDYA | is critical for the AnxA2-PCSK9 binding
80KKELA>GKPLD: AnxA2 with 80KKELA84 replaced by AnxA1 loop sequence 89GKPLD93 (protein, UniProt P07355 2-339, looked up, variant K80G E82P A84D) Annexin A2: STVHEILCKLSLEGDHSTPPSAYGSVKAYTNFDAERDALNIETAIKTKGVDEVTIVNILTNRSNAQRQDIAFAYQRRTGKPLDSALKSALSGHLETVILGLLKTPAQYDASELKASMKGLGTDEDSLIEIICSRTNQELQEINRVYKEMYKTDLEKDIISDTSGDFRKLMVALAKGRRAEDGSVIDYELIDQDARDLYDAGVKRKGTDVPKWISIMTERSVPHLQKVFDRYKSYSPYDMLESIRKEVKGDLENAFLNLVQCIQNKPLYFADRLYDSMKGKGTRDKVLIRIMVSRSEVDMLKIRSEFKRKYGKSLYYYIQQDTKGDYQKALLYLCGGDD | had no appreciable effect on PCSK9 binding
K28S+D34N+E36S: AnxA2 with Lys28, Asp34, Glu36 replaced by AnxA1 Ser, Asn, Ser (protein) MSTVHEILCKLSLEGDHSTPPSAYGSVSAYTNFNASRDALNIETAIKTKGVDEVTIVNILTNRSNAQRQDIAFAYQRRTKKELASALKSALSGHLETVILGLLKTPAQYDASELKASMKGLGTDEDSLIEIICSRTNQELQEINRVYKEMYKTDLEKDIISDTSGDFRKLMVALAKGRRAEDGSVIDYELIDQDARDLYDAGVKRKGTDVPKWISIMTERSVPHLQKVFDRYKSYSPYDMLESIRKEVKGDLENAFLNLVQCIQNKPLYFADRLYDSMKGKGTRDKVLIRIMVSRSEVDMLKIRSEFKRKYGKSLYYYIQQDTKGDYQKALLYLCGGDD | slightly reduced the ability of PCSK9 to bind AnxA2
R37S+E43H+K47M: AnxA2 with Arg37, Glu43, Lys47 replaced by AnxA1 Ser, His, Met (protein) MSTVHEILCKLSLEGDHSTPPSAYGSVKAYTNFDAESDALNIHTAIMTKGVDEVTIVNILTNRSNAQRQDIAFAYQRRTKKELASALKSALSGHLETVILGLLKTPAQYDASELKASMKGLGTDEDSLIEIICSRTNQELQEINRVYKEMYKTDLEKDIISDTSGDFRKLMVALAKGRRAEDGSVIDYELIDQDARDLYDAGVKRKGTDVPKWISIMTERSVPHLQKVFDRYKSYSPYDMLESIRKEVKGDLENAFLNLVQCIQNKPLYFADRLYDSMKGKGTRDKVLIRIMVSRSEVDMLKIRSEFKRKYGKSLYYYIQQDTKGDYQKALLYLCGGDD | significant decrease of binding
